Here are results for one molecule from publication PMC6219920 (Developmental cell, 2018).

The target of this test is wild type CENP-A complexed with histone H4 (human, UniProt P49450 1-140; P62805 1-103). The test can be described thus: pull-down.

B1: MBP-HJURP^1−208 (domain or fragment)
chain: MLGTLRAMEGEDVEDDQLLQKLRASRRRFQRRMQRLIEKYNQPFEDTPVVQMATLTYETPQGLRIWGGRLIKERNEGEIQDSSMKPADRTDGSVQAAAWGPELPSHRTVLGADSKSGEVDATSDQEESVAWALAPAVPQSPLKNELRRKYLTQVDILLQGAEYFECAGNRAGRDVRVTPLPSLASPAVPAPGYCSRISRKSPGDPAKP
Regarding B1, the binding result is given as “binds”.
